Source: patent US9617572B2, “Methods of producing 7-carbon chemicals via aromatic compounds” (INVISTA North America S.á r.l., priority 2012, dated 2017)

Tests used:
Type in all cases: biochemical
[1] = Carboxylate reductase activity assay (pimelate to pimelate semialdehyde); settings: purified enzyme enhanced by sfp gene product, 2 mM pimelate, 1 mM ATP, 1 mM NADPH, pH 7.5, room temperature, 20 min, against empty vector control
Protocol: A sequence encoding a HIS-tag was added to the genes from Segniliparus rugosus and Segniliparus rotundus that encode the carboxylate reductases of SEQ ID NOs: 4 and 7, respectively (see FIGS. 7C and 7F), such that N-terminal HIS tagged carboxylate reductases could be produced. Each of the modified genes was cloned into a pET Duet expression vector along with a sfp gene encoding a HIS-tagged phosphopantetheine transferase from Bacillus subtilis, both under the T7 promoter. Each expression vector was transformed into a BL21[DE3] E. coli host and the resulting recombinant E. coli strains were cultivated at 37° C. in a 250 mL shake flask culture containing 50 mL LB media and antibiotic selection pressure, with shaking at 230 rpm. Each culture was induced overnight at 37° C. using an auto-induction media.
The pellet from each induced shake flask culture was harvested via centrifugation. Each pellet was resuspended and lysed via sonication, and the cell debris was separated from the supernatant via centrifugation. […]
Enzyme activity assays (i.e., from pimelate to pimelate semialdehyde) were performed in triplicate in a buffer composed of a final concentration of 50 mM HEPES buffer (pH=7.5), 2 mM pimelate, 10 mM MgCl2, 1 mM ATP and 1 mM NADPH. […] The consumption of NADPH was monitored by absorbance at 340 nm.

[2] = Carboxylate reductase activity assay (N7-acetyl-7-aminoheptanoate to N7-acetyl-7-aminoheptanal); settings: purified enzyme enhanced by sfp gene product, 2 mM N7-acetyl-7-aminoheptanoate, 1 mM ATP, 1 mM NADPH, pH 7.5, room temperature, 20 min, against empty vector control
Protocol: The activity of each of the N-terminal His-tagged carboxylate reductases of SEQ ID NOs: 3, 6, and 7 (see Example 4, and FIGS. 7B, 7E, and 7F) for converting N7-acetyl-7-aminoheptanoate to N7-acetyl-7-aminoheptanal was assayed in triplicate in a buffer composed of a final concentration of 50 mM HEPES buffer (pH=7.5), 2 mM N7-acetyl-7-aminoheptanoate, 10 mM MgCl2, 1 mM ATP, and 1 mM NADPH. The assays were initiated by adding purified carboxylate reductase and phosphopantetheine transferase or the empty vector control to the assay buffer containing the N7-acetyl-7-aminoheptanoate then incubated at room temperature for 20 min. The consumption of NADPH was monitored by absorbance at 340 nm.

[3] = Carboxylate reductase activity assay (pimelate semialdehyde to heptanedial); settings: purified enzyme enhanced by sfp gene product, 2 mM pimelate semialdehyde, 1 mM ATP, 1 mM NADPH, pH 7.5, room temperature, 20 min, against empty vector control
Protocol: The N-terminal His-tagged carboxylate reductase of SEQ ID NO 7 (see Example 4 and FIG. 7F) was assayed using pimelate semialdehyde as substrate. The enzyme activity assay was performed in triplicate in a buffer composed of a final concentration of 50 mM HEPES buffer (pH=7.5), 2 mM pimelate semialdehyde, 10 mM MgCl2, 1 mM ATP and 1 mM NADPH. The enzyme activity assay reaction was initiated by adding purified carboxylate reductase and phosphopantetheine transferase or the empty vector control to the assay buffer containing the pimelate semialdehyde and then incubated at room temperature for 20 min. The consumption of NADPH was monitored by absorbance at 340 nm.

B1: SEQ ID NO 7: Segniliparus rotundus carboxylate reductase, Genbank Accession No. ADG98140.1 (protein, listed as Segniliparus rotundus)
chain: MTQSHTQGPQASAAHSRLARRAAELLATDPQAAATLPDPEVVRQATRPGLRLAERVDAILSGYADRPALGQRSFQTVKDPITGRSSVELLPTFDTITYRELRERATAIASDLAHHPQAPAKPGDFLASIGFISVDYVAIDIAGVFAGLTAVPLQTGATLATLTAITAETAPTLFAASIEHLPTAVDAVLATPSVRRLLVFDYRAGSDEDREAVEAAKRKIADAGSSVLVDVLDEVIARGKSAPKAPLPPATDAGDDSLSLLIYTSGSTGTPKGAMYPERNVAHFWGGVWAAAFDEDAAPPVPAINITFLPLSHVASRLSLMPTLARGGLMHFVAKSDLSTLFEDLKLARPTNLFLVPRVVEMLYQHYQSELDRRGVQDGTREAEAVKDDLRTGLLGGRILTAGFGSAPLSAELAGFIESLLQIHLVDGYGSTEAGPVWRDGYLVKPPVTDYKLIDVPELGYFSTDSPHPRGELAIKTQTILPGYYKRPETTAEVFDEDGFYLTGDVVAQIGPEQFAYVDRRKNVLKLSQGEFVTLAKLEAAYSSSPLVRQLFVYGSSERSYLLAVIVPTPDALKKFGVGEAAKAALGESLQKIARDEGLQSYEVPRDFIIETDPFTVENGLLSDARKSLRPKLKEHYGERLEAMYKELADGQANELRDIRRGVQQRPTLETVRRAAAAMLGASAAEIKPDAHFTDLGGDSLSALTFSNFLHDLFEVDVPVGVIVSAANTLGSVAEHIDAQLAGGRARPTFATVHGKGSTTIKASDLTLDKFIDEQTLEAAKHLPKPADPPRTVLLTGANGWLGRFLALEWLERLAPAGGKLITIVRGKDAAQAKARLDAAYESGDPKLAGHYQDLAATTLEVLAGDFSEPRLGLDEATWNRLADEVDFISHPGALVNHVLPYNQLFGPNVAGVAEIIKLAITTRIKPVTYLSTVAVAAGVEPSALDEDGDIRTVSAERSVDEGYANGYGNSKWGGEVLLREAHDRTGLPVRVFRSDMILAHQKYTGQVNATDQFTRLVQSLLATGLAPKSFYELDAQGNRQRAHYDGIPVDFTAESITTLGGDGLEGYRSYNVFNPHRDGVGLDEFVDWLIEAGHPITRIDDYDQWLSRFETSLRGLPESKRQASVLPLLHAFARPGPAVDGSPFRNTVFRTDVQKAKIGAEHDIPHLGKALVLKYADDIKQLGLL
[1]
  acceptance of pimelate as substrate (consumption of NADPH, absorbance at 340 nm): accepted pimelate as substrate
[2]
  acceptance of N7-acetyl-7-aminoheptanoate as substrate (consumption of NADPH, absorbance at 340 nm): accepted N7-acetyl-7-aminoheptanoate as substrate
[3]
  acceptance of pimelate semialdehyde as substrate, forming heptanedial (consumption of NADPH, absorbance at 340 nm): accepted pimelate semialdehyde as substrate
